Experimental findings from publication PMC7835275 are described below.

Experiment [1] addresses His-tagged DVB1^G90E, full length, from E. coli (rice (Oryza sativa L.)). The experiment is described as follows: native gel or EMSA; Native-PAGE of the purified His-tagged protein, immunoblot with a His-tag antibody; SDS-PAGE beside it. For orientation: Mobility shift assays separate free from complexed probe on a gel.
The target in experiment [2] is His-tagged DVB1, full length, from E. coli (rice (Oryza sativa L.)). The description is as above.

As usually defined, the stoichiometry N is a count of units in the complex or per binding partner. As for “His-tagged DVB1^G90E, full length, from E. coli (natural protein)”, in experiment [1], the stoichiometry N amounted to 2. For “His-tagged DVB1, full length, from E. coli (natural protein)”, the stoichiometry N in experiment [2] is 2.
